Data on one molecule can be found in US20200405889A1 (WASHINGTON UNIVERSITY, published 2020).

Where no end group is shown, it is not given here. [ ]: non-standard residue; d: D form.

The experiment addresses mouse chemokine (C-C motif) receptor 2 (CCR2) (mouse, UniProt P51683 1-373). Briefly: cell-based or functional assay.

Sequence of mouse chemokine (C-C motif) receptor 2 (CCR2) (P51683 whole entry): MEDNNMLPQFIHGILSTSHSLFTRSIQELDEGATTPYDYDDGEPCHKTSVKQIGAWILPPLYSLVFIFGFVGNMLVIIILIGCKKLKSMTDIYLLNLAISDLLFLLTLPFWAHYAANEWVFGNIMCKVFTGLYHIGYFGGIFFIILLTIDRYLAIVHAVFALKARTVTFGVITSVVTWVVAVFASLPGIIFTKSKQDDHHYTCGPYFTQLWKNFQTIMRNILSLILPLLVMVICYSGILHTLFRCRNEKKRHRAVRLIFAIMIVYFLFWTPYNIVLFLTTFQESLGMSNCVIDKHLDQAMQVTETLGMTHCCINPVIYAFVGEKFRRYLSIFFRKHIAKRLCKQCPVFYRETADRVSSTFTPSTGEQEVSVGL

B1: ^64CuAuNCs-ECL1i (other)
peptide: [dL]G[dT][dF][dL][dK][dC]
modifications: not fully specified (residue 7); also: peptide joined via TA-PEG-Maleimide to a gold nanocluster doped with 64Cu, copy number not given here
Regarding B1, the “graft/native lung uptake ratio, PET at 4 hours” value came out at 7.24 ratio; the “graft/native lung uptake ratio, PET at 24 hours” value amounted to 8.44 ratio; the “graft/native lung uptake ratio, PET, printed 'At 4 hours after transplantation'” value is 6.58 ratio.
